“And” between values parts separate entries of the source, which are not always exact repeats. Equal entries are not always repeated. Where two headings read alike, the source gives them in different places.
Key:
[1] = target: T1, Peptide_060; assay: peptide microarray
T1 sequence (peptide): LKHQPGGGKVQIINK

[2] = target: T1, Peptide_060; assay: peptide microarray; remark: listed apart in the source
[3] = target: biotinylated a/B tubulin dimers; assay: SPR, biotinylated tubulin dimers as probe on a streptavidin chip, tau in solution
[4] = target: T2, Peptide_061; assay: peptide microarray
T2 sequence (peptide): PGGGKVQIINKKLDL

[5] = target: T3, Peptide_051; assay: peptide microarray
T3 sequence (peptide): RTPPKSPSSAKSRLQ

[6] = target: T1, Peptide_060; assay: peptide microarray; remark: listed apart in the source
[7] = target: T2, Peptide_061; assay: peptide microarray; remark: listed apart in the source

| Substance | fluorescence intensity [1] | fluorescence intensity [2] | further results |
| --- | --- | --- | --- |
| ALZ50 (antibody) | 2600 | 3070 |  |
| TOC1 (antibody) | 1580 and 1790 |  |  |
| TNT1 (antibody) |  | 925 and 797 |  |
| Recombinant human tau isoform 1N4R (from UniProt P10636 1-412) |  |  | Kd [3]: 39.8 nM |
| TNT2 (antibody) |  | 771 and 1024 |  |
| RD4 (antibody) | 722 |  | fluorescence intensity [4]: 10700; fluorescence intensity [5]: 163; fluorescence intensity [6]: 738; fluorescence intensity [7]: 21000 |
| T14 (antibody) | 1010 |  | fluorescence intensity [6]: 840 |
| tau1 (antibody) | 3040 and 1780 |  |  |

Now from value to substance, other results behind:

| fluorescence intensity [1] | fluorescence intensity [2] | Substance | further results |
| --- | --- | --- | --- |
| 770 and 1100 |  | MC1 (antibody) |  |
| 1650 and 844 |  | T46 (antibody) | fluorescence intensity [4]: 3020 |

— patent US20240352102A1
